According to patent publication US20100115639A1 (PIERRE FABRE MEDICAMENT, published 2010):
Where a chain is given by its changes, count along the chain named.

B1: 224G11 murine monoclonal antibody (antibody, mouse IgG1, V domains shown)
VH: EVQLQQSGPELVKPGASVKISCKTSGYIFTAYTMHWVRQSLGESLDWIGGIKPNNGLANYNQKFKGKATLTVDKSSSTAYMDLRSLTSEDSAVYYCARSEITTEFDYWGQGTALTVSS
VL: DIVLTQSPASLAVSLGQRATISCRASESVDSYANSFMHWYQQKPGQPPKLLIYRASNLESGIPARFSGSGSRTDFTLTINPVEADDVATYYCQQSKEDPLTFGSGTKLEMK
notes: also called CNCM I-3731
B2: Fab fragment of mAb 224G11 (papain cleavage) (Fab, V domains shown)
VH: B1 VH
VL: B1 VL
notes: also called 224G11 Fab
B3: 227H1 murine monoclonal antibody (antibody, mouse IgG1, V domains shown)
VH: EVQLQQSGPELVKPGASMKISCKASGYSFTDYTLNWVKQSHGKTLEWIGLINPYNGGTTYNQKFKGKATLTVDKSSSTAYMELLSLTSEDSAVYYCAREEITKDFDFWGQGTTLTVSS
VL: B1 VL with D1G, A25V, V29I, S31T, A33G, M37I, V87S, K96N, L100F
notes: also called CNCM I-3732
B4: 223C4 murine monoclonal antibody (antibody, mouse IgG1, V domains shown)
VH: EVLLQQSGPELVKPGASVKIPCKASGYTFTDYNMDWVKQSHGMSLEWIGDINPNNGGTIFNQKFKGKATLTVDKSSSTAYMELRSLTSEDTAVYYCARGRYVGYYYAMDYWGQGTSVTVSS
VL: DIQMTQSPASLSVSVGETVTITCRASENIYSNLAWYQQKQGKSPQLLVYAATNLVDGVPSRFSGSGSGTQYSLKINSLQSEDFGSYYCQHFWGPPYTFGGGTKLEIK
notes: also called CNCM I-3786
B5: 11E1 murine monoclonal antibody (antibody, V domains shown)
VH: QVQLQQSGAELAKPGASVKMSCKASGYTFTSYWMNWVKQRPGQGLEWIGYINPTTGSTDYNQKLKDKATLTADKSSNTAYMQLSSLTSEDSAVYYCAIGGYGSWFAYWGQGTLVTVSA
VL: QIVLTQSPAIMSASPGEKVTLTCSASSSVSSTYLYWYQQKPGSSPKLWIYTTSILASGVPARFSGSGSGTSYSLTISSMETEDAASYFCHQWSSYPFTFGSGTKLDIK
notes: Used as hybridoma supernatant or purified Mab; also called MAb 11E1; CNCM I-3724
B6: Fab fragment of mAb 11E1 (papain cleavage) (Fab, V domains shown)
VH: B5 VH
VL: B5 VL
notes: also called 11E1 Fab

Tests used:
[1] = target: c-Met receptor on A549 cells (human, UniProt P08581 25-1390); assay: cell-based or functional assay
[2] = target: T1, recombinant c-Met-Extra-Cellular Domain (ECD) fused to a human IgG1 Fc domain (R&D Systems, 358MT) (human, UniProt P08581 25-932); assay: displacement of [125I]-HGF from immobilized c-Met-Fc (FlashPlate)
T1 construct: extracellular domain; Bought; bivalent (dimeric) fusion, MW 129 kDa as printed; also called c-Met-Fc; c-Met-Fc-Tag His; not shown: human IgG1 Fc domain

[3] = target: T2, recombinant SEMA domain of c-Met (UniProt P08581 27-515, limits assumed); assay: ELISA, SEMA domain coated at 3 µg/ml, hybridoma supernatants
T2 construct: domain: SEMA; also called SEMA protein
Description: The reaction is left to occur for 5 min at room temperature. The reaction is stopped by the addition of 50 μl/well of a 1 M H₂SO₄ solution and read on a plate reader at 450 nm.

[4] = target: C-Met-Rluc and C-Met-K1100A-YFP co-expressed in CHO stable cell lines (R. reniformis), P08581; assay: cell-based or functional assay
[5] = target: T1, recombinant c-Met-Extra-Cellular Domain …; assay: BIAcore X, Fab as analyte on c-Met-Fc-His captured by anti-His antibody, 25°C
Description: (§1) For the assay, an anti-Tag histidine capture antibody was coated on CM5 sensorchips. The running buffer was HBS-EP, the flow rate was 30 μl/min and the test was performed at 25° C. Soluble c-Met (ECD M1)2-Fc-(HHHHHH)₂ antigen was captured on the sensorchip (around 270 RU), and the antibodies to be tested were used in solution as analytes. The sensorship was regenerated using Glycine, HCl pH 1.5 buffer on both flowcells for half a minute.

[6] = target: T1, recombinant c-Met-Extra-Cellular Domain …; assay: BIAcore X, Fab as analyte on c-Met-Fc-His captured by anti-His antibody, 25°C; column head misprinted
Description: as §1

| Molecule | agonist effect on c-Met phosphorylation (Mab alone, A549 cells) [1] [%] | antagonist effect on c-Met phosphorylation in presence of HGF (A549 cells) [1] [%] | inhibition of c-Met phosphorylation (phospho c-Met ELISA, A549 cells + HGF 100 ng/ml, antibody 30 µg/ml) [1] [%] | IC50 [2] [nM] | basal effect on c-Met phosphorylation (antibody alone, A549 cells) [1] [%] | binding result [3] | inhibition of dimerization (BRET signal, CHO cells) [4] [%] | Half-Life [5] [h] | Kd [5] [nM] | kon [5] [M⁻¹ s⁻¹] | koff [6] [s⁻¹] |
| --- | --- | --- | --- | --- | --- | --- | --- | --- | --- | --- | --- |
| 5D5 Mab, generated by Genentech, available at the ATCC (antibody) | 58 | 39 | 42 |  |  |  |  |  |  |  |  |
| B1 |  |  | 54 | 3 | < 20 | no binding | 32 |  |  |  |  |
| B2 |  |  |  |  |  |  |  | 2.5 | 0.0348 | 2.04e+06 | 7.79e-05 |
| B3 |  |  | 65 | 5.8 | < 20 | no binding | 52 |  |  |  |  |
| B4 |  |  | 80 | 2.7 | < 20 | no binding | 55 |  |  |  |  |
| B5 |  |  | 68 | 20 | < 20 |  | 69 |  |  |  |  |
| B6 |  |  |  |  |  |  |  | 4.1 | 0.0414 | 1.13e+06 | 4.68e-05 |
